# Assay results reported in patent US20230051715A1 (MABWELL THERAPEUTICS, published 2023).
# T1: active human C1s (CompTech A104 C1s Enzyme) (human, UniProt P09871 16-688)
# T1 construct: also called human active C1s; active C1s protein
# T1 sequence (looked up): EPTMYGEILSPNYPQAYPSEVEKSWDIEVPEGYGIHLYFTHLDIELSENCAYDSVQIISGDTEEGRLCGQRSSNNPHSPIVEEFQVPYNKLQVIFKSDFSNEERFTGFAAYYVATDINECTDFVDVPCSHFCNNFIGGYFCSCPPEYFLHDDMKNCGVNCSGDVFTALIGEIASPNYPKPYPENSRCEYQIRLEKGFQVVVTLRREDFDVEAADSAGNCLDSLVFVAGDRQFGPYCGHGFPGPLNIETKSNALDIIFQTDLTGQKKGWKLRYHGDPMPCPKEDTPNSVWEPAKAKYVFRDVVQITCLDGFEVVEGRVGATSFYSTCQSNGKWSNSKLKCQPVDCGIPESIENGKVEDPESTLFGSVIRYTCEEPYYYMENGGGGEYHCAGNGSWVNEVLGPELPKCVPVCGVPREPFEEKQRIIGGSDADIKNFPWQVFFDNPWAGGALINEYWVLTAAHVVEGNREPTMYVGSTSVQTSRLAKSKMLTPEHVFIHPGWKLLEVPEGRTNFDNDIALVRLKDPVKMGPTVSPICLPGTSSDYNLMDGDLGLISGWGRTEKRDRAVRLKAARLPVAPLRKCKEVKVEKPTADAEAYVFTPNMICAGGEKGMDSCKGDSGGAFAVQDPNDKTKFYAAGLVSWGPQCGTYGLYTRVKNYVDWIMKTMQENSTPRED
# T2: full-length human C1s (produced in house) (human, UniProt P09871 16-688)
# T2 construct: Called full-length; Partly auto-cleaved at R422-I423 on blots; also called HuC1s; Hu C1s
# T2 sequence: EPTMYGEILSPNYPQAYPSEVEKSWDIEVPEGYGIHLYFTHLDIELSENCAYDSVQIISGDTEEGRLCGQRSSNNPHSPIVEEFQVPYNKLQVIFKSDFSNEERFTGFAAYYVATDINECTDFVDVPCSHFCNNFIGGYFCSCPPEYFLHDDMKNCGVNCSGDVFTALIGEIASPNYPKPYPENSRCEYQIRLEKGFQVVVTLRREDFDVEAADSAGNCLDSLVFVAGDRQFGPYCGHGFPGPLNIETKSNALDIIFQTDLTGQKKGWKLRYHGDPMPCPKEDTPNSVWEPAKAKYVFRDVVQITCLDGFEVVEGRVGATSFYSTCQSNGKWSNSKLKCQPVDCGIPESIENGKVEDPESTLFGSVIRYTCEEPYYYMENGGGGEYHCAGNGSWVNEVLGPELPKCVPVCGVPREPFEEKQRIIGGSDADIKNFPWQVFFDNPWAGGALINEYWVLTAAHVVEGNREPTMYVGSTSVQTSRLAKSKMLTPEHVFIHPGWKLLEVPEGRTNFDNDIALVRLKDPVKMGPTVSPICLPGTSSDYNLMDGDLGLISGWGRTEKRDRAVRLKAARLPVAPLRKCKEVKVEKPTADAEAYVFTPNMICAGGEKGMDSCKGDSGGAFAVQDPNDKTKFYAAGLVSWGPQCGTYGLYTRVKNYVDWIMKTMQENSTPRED
# Assays:
# [1] = molecular target: T1, active human C1s (CompTech A104 C1s …); assay: BLI (Octet RED96e), antibody on AHC biosensor; HuC1s Form: Active; R^2 0.9994
# Method: Bio-Layer Interferometry technology was used for anti-C1s antibody affinity measurement and binding kinetics determinations with OCTET® RED96e system (Sartorius AG). Pre-hydrated Anti-Human IgG Fc Capture (AHC) biosensors were first equilibrated in 1×KB (Kinetic Buffer, 1×PBS pH 7.4+0.02% Tween-20+0.1% BSA) for 120 sec for the first baseline, followed by loading with […] anti-C1s antibody (2-7, FIG. 3A; 2-8, FIG. 3B; hz2-7(H1L2), FIG. 3C; hz2-8(H1L2 G80A/T82A, FIG. 3D) onto AHC biosensors for 240 sec. Then, the second baseline signal was established for 120 sec before association with various concentrations of active human C1s (CompTech A104) for 240-360 sec. At last, analyte was dissociated in 1×KB for 360 sec. Anti-C1s antibodies 2-7 and 2-8 were also analyzed against human C1s proenzyme (CompTech A103) (data not shown). Data analysis was carried out using OCTET® Data Analysis HT Software (Sartorius AG). KD, kₒₙ, koff and R² values were calculated for each antibody and target combination, as summarized in FIG. 3E showing high affinity binding with KD values in the low nanomolar to picomolar range.
# [2] = molecular target: T2, full-length human C1s (produced in …); assay: BLI (Octet RED96e), antibody on AHC biosensor; C1s Species: Human; R^2 0.9997
# Excerpt: At last, analyte was dissociated in 1×KB for 360 sec. Data analysis was done using OCTET® Data Analysis HT Software (Sartorius AG).
Kd [1],koff [1],kon [1],Kd [2],koff [2],kon [2],Binder
0.14 nM,4.8e-05 s⁻¹,350000 M⁻¹ s⁻¹,,,,"Anti-C1s antibody 2-7 (antibody, human IgG1, kappa, V domains shown, the HC/LC entries may hold it too; also called clone 2-7) VH: EVKLEESGGGLVPPGGSMKLSCVASGFTFSNYFMNWVRQSPEKGLEWVAEIRLKFTNYATHYAESVEGRFTISRDDSKSSVYLQMNNLRAEDTGIYYCTRDYGSRNGYFDYWGQGTTLTVSS VL: DIVMTQAAPSVPVTPGESVSISCRSSKSLLHSNGNTFLYWFLQRPGQSPQLLIYRMSNLASGVPDRFSGSGSGTAFTLRVSRVEAEDVGIYYCMQHLEYPYTFGGGTKLEIKT"
,,,0.7 nM,0.0003 s⁻¹,430000 M⁻¹ s⁻¹,"Anti-C1s antibody hz2-8 (H1L2 G80A/T82A) (antibody, V domains shown, Humanized variant with G80A and T82A in HC CDR2 (already in the entry), human IgG1 / kappa) VH: QVQLVQSGAEVKKPGASVKVSCKASGFNIKEYYMHWVRQAPEQGLEWMGWIDPENADAIYAQKFQGRVTITADTSTNTAYMELSSLRSEDTAVYYCARSRLFFAYWGQGTLVTVSS VL: DIQMTQSPKSLSASVGDRVTITCRASQDVRTALDWYQQKPGQSPKLLIYSASYRYSGVPSRFSGSGSGTDFTLTISSLQPEDFATYYCQQQYTTPYTFGQGTKLEIKR"
